Source: patent US20210147525A1 (University of California, published 2021)

Biological target: T1, Biotin-HSA (human, UniProt P02768, biotinylated (sites and number not given))
T1 construct: biotinylated, without the compound; not further described; also called biotinylated-HSA; biotinylated human albumin
Assay: binding of biotinylated HSA without compound to transfected HEK293 cells, detected with avidin-alkaline phosphatase

T1 sequence (P02768 25-609 limits assumed): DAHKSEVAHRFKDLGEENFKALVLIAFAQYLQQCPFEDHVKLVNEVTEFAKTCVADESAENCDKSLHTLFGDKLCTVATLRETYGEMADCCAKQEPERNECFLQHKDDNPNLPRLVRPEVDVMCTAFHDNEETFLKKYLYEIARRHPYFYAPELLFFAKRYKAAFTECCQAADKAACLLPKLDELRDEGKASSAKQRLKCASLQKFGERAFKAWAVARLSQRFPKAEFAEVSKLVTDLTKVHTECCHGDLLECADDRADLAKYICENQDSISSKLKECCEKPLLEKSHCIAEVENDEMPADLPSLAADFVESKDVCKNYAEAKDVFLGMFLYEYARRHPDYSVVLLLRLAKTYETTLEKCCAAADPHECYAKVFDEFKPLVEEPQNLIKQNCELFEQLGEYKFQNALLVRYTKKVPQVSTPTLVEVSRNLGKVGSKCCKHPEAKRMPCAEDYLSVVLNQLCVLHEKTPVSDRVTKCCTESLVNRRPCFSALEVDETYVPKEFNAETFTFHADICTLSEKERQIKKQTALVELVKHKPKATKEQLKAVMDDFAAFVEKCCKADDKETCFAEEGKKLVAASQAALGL

binding result: no binding
B1: R-PLXDC1 (full length human PLXDC1 with an epitope tag at the N-terminus, on transfected cells) (receptor, not shown: small tags and cut ends)
chain: LSPQPGAGHDEGPGSGWAAKGTVRGWNRRARESPGHVSEPDRTQLSQDLGGGTLAMDTLPDNRTRVVEDNHSYYVSRLYGPSEPHSRELWVDVAEANRSQVKIHTILSNTHRQASRVVLSFDFPFYGHPLRQITIATGGFIFMGDVIHRMLTATQYVAPLMANFNPGYSDNSTVVYFDNGTVFVVQWDHVYLQGWEDKGSFTFQAALHHDGRIVFAYKEIPMSVPEISSSQHPVKTGLSDAFMILNPSPDVPESRRRSIFEYHRIELDPSKVTSMSAVEFTPLPTCLQHRSCDACMSSDLTFNCSWCHVLQRCSSGFDRYRQEWMDYGCAQEAEGRMCEDFQDEDHDSASPDTSFSPYDGDLTTTSSSLFIDSLTTEDDTKLNPYAGGDGLQNNLSPKTKGTPVHLGTIVGIVLAVLLVAAIILAGIYINGHPTSNAALFFIERRPHHWPAMKFRSHPDHSTYAEVEPSGHEKEGFMEAEQC
notes: also called TEM7
